The text below walks through data of PMC10018343 (Nucleic Acids Research, 2023).

The labels stand for the following.
B2: Bre1^R6BR (Bre1 amino acids 1-212, Rad6-binding region) (domain or fragment, S. cerevisiae, UniProt Q07457 1-212, looked up)
chain: MTAEPATKKIKLELSDPSEPLTQSDVIAFQKEALFRCINRRRVDFEALRKQYELSRRECIDVSRKLANIMALIVTLARFIETFCTDANEKQLCREIAQGDETLIVQRSDSFMKLLTKYGKPNTTDSNTNSNASDHIQELTTELKNLRKSKEELFYENSQLTEEISALKEYYTNIIRKYDRDESFTIKRVFKEDKTDAVKELREDEKESNENN

Data set [1] deals with B2. The data set is described as follows: SEC-MALS. For orientation: In gel filtration, larger molecules generally elute earlier.
The data set “SEC-MALS” deals with the molecule itself. Nature of the data set: SEC-MALS.
Data set [2] addresses T1, biotinylated Bre1^R6BR (Bre1 amino acids 1-212 with AviTag) (S. cerevisiae, UniProt Q07457 1-212, biotin on the AviTag).
T1 sequence (looked up): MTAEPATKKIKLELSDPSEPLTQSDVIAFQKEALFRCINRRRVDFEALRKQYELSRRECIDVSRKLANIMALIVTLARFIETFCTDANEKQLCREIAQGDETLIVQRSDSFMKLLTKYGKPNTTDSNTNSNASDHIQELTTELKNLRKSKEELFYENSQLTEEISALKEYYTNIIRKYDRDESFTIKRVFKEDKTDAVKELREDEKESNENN
Nature of the data set: BLI.

B1: His6Rad6 (amino acids 1-150), co-expressed with Bre1^R6BR (enzyme, S. cerevisiae, UniProt P06104 1-150, looked up)
chain: MSTPARRRLMRDFKRMKEDAPPGVSASPLPDNVMVWNAMIIGPADTPYEDGTFRLLLEFDEEYPNKPPHVKFLSEMFHPNVYANGEICLDILQNRWTPTYDVASILTSIQSLFNDPNPASPANVEAATLFKDHKSQYVKRVKETVEKSWE
For B1, the stoichiometry N (commonly a count of units in the complex or per binding partner) in data set [1] is 0.5 Rad6 per Bre1^R6BR subunit.
With B2, in the data set “SEC-MALS”, the “stoichiometry N” value was 2.

B3: His6Rad6 (wild type), purified alone as BLI analyte (enzyme, S. cerevisiae, UniProt P06104 1-172, looked up)
chain: MSTPARRRLMRDFKRMKEDAPPGVSASPLPDNVMVWNAMIIGPADTPYEDGTFRLLLEFDEEYPNKPPHVKFLSEMFHPNVYANGEICLDILQNRWTPTYDVASILTSIQSLFNDPNPASPANVEAATLFKDHKSQYVKRVKETVEKSWEDDMDDMDDDDDDDDDDDDDEAD
With B3, the Kd (commonly the constant that tells how readily two partners part at equilibrium) in data set [2] was 112 nM.
